Read-outs that look alike come from different tables or passages of the source.
Columns and labels:
[1] = molecular target: T1, human CTLA-4 expressed on the cell surface (human, UniProt P16410 36-223); assay: flow cytometry, 10 µg/mL mAb, geometric MFI
T1 construct: CHO cells stably expressing human CTLA-4; also called hCTLA-4; CTLA-4+ CHO cells
Description: (§1) Table 23. In vitro characterization of scFvs reformatted as full-length antibodies. kon, koff, and KD of the indicated CTLA-4 mAbs for soluble human CTLA-4 was determined by SPR (Carterra). Geometric MFI of the indicated CTLA-4 mAbs bound to CTLA-4⁺ or CD27⁺ CHO cells as detected by a secondary human IgG antibody and flow cytometry. Affinity (KD) of the indicated CTLA-4 mAbs for soluble cynomolgus CTLA-4 was determined by a single antigen concentration BLI measurement (Octet). […] Due to constraints on sample size in each Promega bioassay kit, this set of aCTLA-4 mAbs was analyzed using multiple plates (plate letters correspond to Plate A-D in FIG. 20D).
(§2) To determine if the CTLA-4 mAbs bound the appropriate antigen expressed on the surface of mammalian cells, CHO cell lines stably expressing human CTLA-4 or an irrelevant antigen (CD27) were generated. Cells (0.5×10⁶ each cell line) were combined and washed with MACS buffer (Dulbecco's Phosphate Buffered Saline [DPBS], with 0.5% bovine serum albumin [BSA], and 2 mM ethylenediaminetetraacetic acid [EDTA]). The cells were incubated with 10 μg/mL anti-CTLA-4 for 30 min at 4° C., then excess, unbound mAbs were removed by washing twice with MACS buffer. The cells were then stained with PE-conjugated anti-Human IgG Fc antibody (clone M1310G05, BioLegend 410720, San Diego, Calif., USA) to detect bound anti-CTLA-4 and with fluorescein isothiocyanate (FITC)-conjugated anti-CD27 (clone 0323, BioLegend 302806, San Diego, Calif., USA) to distinguish the cells expressing the irrelevant antigen. Cells were washed twice with MACS buffer, fixed with 4% paraformaldehyde fixation buffer (BioLegend 420801, San Diego, Calif., USA) for 20 minutes at room temperature and washed twice more with MACS buffer.

[2] = molecular target: T2, CD27 on CHO cells (UniProt P26842 20-260, limits assumed); assay: flow cytometry, 10 µg/mL mAb, geometric MFI
T2 construct: whole, on cells; also called CD27+ CHO cells; irrelevant antigen (CD27)
Description: as §1, §2

[3] = molecular target: T2, CD27 on CHO cells; assay: flow cytometry, mixed CTLA-4+ and CD27+ CHO cells
Description: To determine if the CTLA-4 mAbs bound the appropriate antigen expressed on the surface of mammalian cells, CHO cell lines stably expressing human CTLA-4 or an irrelevant antigen (CD27) were generated. Cells (0.5×10⁶ each cell line) were combined and washed with MACS buffer (Dulbecco's Phosphate Buffered Saline [DPBS], with 0.5% bovine serum albumin [BSA], and 2 mM ethylenediaminetetraacetic acid [EDTA]). The cells were incubated with 10 μg/mL anti-CTLA-4 for 30 min at 4° C., then excess, unbound mAbs were removed by washing twice with MACS buffer. The cells were then stained with PE-conjugated anti-Human IgG Fc antibody (clone M1310G05, BioLegend 410720, San Diego, Calif., USA) to detect bound anti-CTLA-4 and with fluorescein isothiocyanate (FITC)-conjugated anti-CD27 (clone 0323, BioLegend 302806, San Diego, Calif., USA) to distinguish the cells expressing the irrelevant antigen. Cells were washed twice with MACS buffer, fixed with 4% paraformaldehyde fixation buffer (BioLegend 420801, San Diego, Calif., USA) for 20 minutes at room temperature and washed twice more with MACS buffer. […] Binding of mAbs to CTLA-4 on the cell surface was determined using LSR II (BD Biosciences, San Jose, Calif., USA) or CytoFLEX LX (Beckman Coulter, Brea. Calif., USA) flow cytometers and analyzed using FlowJo (v10.6.1, BD Biosciences, San Jose, Calif., USA).

[4] = molecular target: mouse CTLA-4 (mouse, UniProt P09793 36-161, limits assumed); assay: BLI (Octet)
Description: (§3) The binding specificity and affinity of each full-length antibody towards CTLA-4 were determined using biolayer interferometry (BLI) and/or surface plasmon resonance (SPR). Anti-cyno CTLA-4 and anti-mouse CTLA-4 affinities were tested using ForteBio (BLI). Anti-human CTLA-4 affinities were measured using Carterra (SPR).
(§4) For BLI, antibodies were loaded onto an Anti-Human IgG Fc (AHC) biosensor using the Octet Red96 system (ForteBio). Loaded biosensors were dipped into antigen dilutions beginning at 300 nM, with 6 serial dilutions at 1:3. Kinetic analysis was performed using a 1:1 binding model and global fitting.

[5] = molecular target: T3, His-tagged human CTLA-4 (CT4-H5229; Acro Biosystems) (human, UniProt P16410 36-161); assay: SPR (Carterra)
T3 construct: bought soluble protein; also called soluble human CTLA-4; recombinant human CTLA-4; not shown: His tag
Description: (§5) Then, goat anti-Human IgG Fc (Southern Biotech 2047-01) was coupled for 10 minutes at […] in 10 mM Sodim Acetate pH 4.5 (Carterra Inc.). The surface was then deactivated with 1 M ethanolamine pH 8.5 (Carterra Inc.). Running buffer used for the lawn immobilization was HBS-EPC (10 mM HEPES, 150 mM NaCl, 3 mM EDTA, 0.05% Tween 20, pH 7.4; Teknova).
(§6) The sensor chip was then transferred to a continuous flow microspotter (CFM; Carterra Inc.) for array capturing. The mAb supernatants were diluted 50-fold ([…] final concentration) into HBS-EPC with 1 mg/mL BSA. The samples were each captured twice with 15-minute and 4-minute capture steps on the first and second prints, respectively, to create multiple densities, using a […] flow rate. The running buffer in the CFM was also HBS-EPC.
(§7) Next, the sensor chip was loaded onto an SPR reader (MX-96 system; Ibis Technologies) for the kinetic analysis. CTLA-4 was injected at five increasing concentrations in a four-fold dilution series with concentrations of 1.95, 7.8, 31.25, 125, and 500 nM in running buffer (HBS-EPC with 1.0 mg/mL BSA). CTLA-4 injections were 5 minutes with a 15-minute dissociation at […] in a non-regenerative kinetic series. An injection of the goat anti-Human IgG Fc capture antibody at […] was injected at the end of the series to verify the capture level of each mAb. Binding data was double referenced by subtracting an interspot surface and a blank injection and analyzed for ka (on-rate), kd (off-rate), and KD (affinity) using the Kinetic Interaction Tool software (Carterra Inc.).

[6] = molecular target: T3, His-tagged human CTLA-4 (CT4-H5229; …); assay: SPR (Carterra); remark: listed apart in the source
Description: as §5, §6, §7

[7] = molecular target: T4, His-tagged cynomolgus CTLA-4 (CT4-C5227; Acro Biosystems) (cynomolgus, UniProt G7PL88 36-161); assay: BLI (Octet)
T4 construct: also called soluble cynomolgus CTLA-4; cyno CTLA-4
Description: as §3, §4

[8] = molecular target: T1, human CTLA-4 expressed on the cell …; assay: cell-based or functional assay

T1 sequence (P16410 36-223 limits assumed): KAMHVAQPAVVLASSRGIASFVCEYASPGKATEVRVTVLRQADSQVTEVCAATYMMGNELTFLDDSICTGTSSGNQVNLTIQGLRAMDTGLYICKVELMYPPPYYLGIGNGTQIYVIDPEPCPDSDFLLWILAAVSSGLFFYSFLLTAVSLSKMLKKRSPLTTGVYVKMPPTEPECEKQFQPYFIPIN
T2 sequence (P26842 20-260 limits assumed): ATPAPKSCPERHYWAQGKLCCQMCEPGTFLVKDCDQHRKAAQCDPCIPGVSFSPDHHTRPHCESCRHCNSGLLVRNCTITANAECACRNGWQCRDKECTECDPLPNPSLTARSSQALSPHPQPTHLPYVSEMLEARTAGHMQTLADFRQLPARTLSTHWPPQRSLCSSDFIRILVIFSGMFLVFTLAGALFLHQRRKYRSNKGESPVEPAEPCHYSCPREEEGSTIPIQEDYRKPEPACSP
T3 sequence (P16410 36-161 limits assumed): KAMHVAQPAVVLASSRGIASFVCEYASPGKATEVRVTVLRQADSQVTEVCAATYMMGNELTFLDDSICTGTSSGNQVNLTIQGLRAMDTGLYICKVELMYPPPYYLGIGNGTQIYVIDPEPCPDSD
T4 sequence (G7PL88 entry or part of it limits assumed, form in doubt): as the sequence (P16410 36-161 limits assumed) above, with S14N, I18T, L106M counted along it
Sequence of mouse CTLA-4 (P09793 36-161 limits assumed): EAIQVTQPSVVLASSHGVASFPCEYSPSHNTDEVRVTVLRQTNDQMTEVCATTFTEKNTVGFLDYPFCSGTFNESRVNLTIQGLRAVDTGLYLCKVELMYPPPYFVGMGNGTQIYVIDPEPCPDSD

Binder | MFI of CTLA-4+ CHO cells [1] | MFI of CD27+ CHO cells [2] | binding result [3] | binding result [4] | Kd [5] | Kd [6] | koff [6] | kon [6] | Kd [7] | Promega assay % inhibition [8] | Promega assay antagonist (EC50, ug/mL) [8]
antibody A14 (L14H14), GIGA-564 (antibody, V domains shown, also called aCTLA-4.15) VH: QVQLVESGGGVVQPGRSLRLSCAASGFTFSSYGMHWVRQAPGTGLEWVAVIWYEGRNKYYADPVKGRFTISRDNSKNTLYLQMNSLRDDDTAVYYCARAGDLGAFDIWGQGTMVTVSSA VL: not shown | 717 | 15.9 | no binding (tested: 10 µg/mL) |  |  |  |  |  |  |  | 
Ipilimumab analog (antibody, V domains shown, also called ipi analog; in-house produced ipilimumab) VH: QVQLVESGGGVVQPGRSLRLSCAASGFTFSSYTMHWVRQAPGKGLEWVTFISYDGNNKYYADSVKGRFTISRDNSKNTLYLQMNSLRAEDTAIYYCARTGWLGPFDYWGQGTLVTVSS VL: not shown |  |  |  | no binding (tested: 300 nM) |  |  |  |  |  |  | 
antibody A27 (L27H27) (antibody, V domains shown, also called aCTLA-4.8) VH: QVQLVQSGAEVKKPGASVKVSCKASGYTFTSYGISWVRQAPGQGLEWMGWISAYNGNTNYAQKLQGRVTMTTDTSTSTAYMELRSLRSDDTAVYYCGRWVRGVEYWGQGTLVTVSS VL: not shown |  |  |  |  | 120 nM | 120 nM | 0.0036 s⁻¹ | 31000 M⁻¹ s⁻¹ |  |  | 
antibody A11 (L11H11) (antibody, V domains shown, also called aCTLA-4.31) VH: QVQLVESGGGVVQPGRSLRLSCAASGFTFSSYGMHWVRQAPGKGLEWVAVIWYDVGNKYYIDSVKGRFTISRDNSKNTLYLQMNSLRAEDTAVYYCARDYYGSGSPRHFDYWGQGTLVTVSS VL: DIQLTQSPSFLSASVGDRVTITCRASQGISSYLAWYQQKPGKAPKLLIYAASTLQSGVPSRFSGSGSGTEFTLTISSLQPEDFATYYCQQLNSYPPTFGQGTKVEIK |  |  |  | no binding (tested: 300 nM) | 7.5 nM | 7.5 nM | 0.00035 s⁻¹ | 47000 M⁻¹ s⁻¹ | 1.6 nM | 26.6% | 0.42 µg/mL
antibody A21 (L21H21) (antibody, V domains shown, also called aCTLA-4.10) VH: QVQLVESGGGVVQPGRSLRLSCAASGFTFSSYGMHWVRQAPGKGLEWVAVIWYDGNNKYYADSVKGRFTISRDNSKNTLYLHMNSLRADDTAVYYCARMLRGAPYYYGMDVWGQGTTVTVSS VL: not shown |  |  |  |  | 31 nM | 31 nM | 0.00055 s⁻¹ | 18000 M⁻¹ s⁻¹ |  |  | 
antibody A17 (L17H17) (antibody, V domains shown, also called aCTLA-4.17) VH: EVQLVESGGGLVQPGGSLRLSCAASGFTFSNYAMSWVRQAPGKGLEWVSAISGGGLSTYYADSVKGRFTISRDNSKNTLYLQMNSLRAEDTAVYYCAKDLLWLGFDYWGQGTLVTVSS VL: DIQMTQSPSSLSASVGDRVTITCRASQAIRNDLGWYQQKPGKAPKRLIYAASSLQSGVPPRFSGSGSGTEFTLTISSLQPEDFATYYCLQHNSYPLTFGGGTKVEIK |  |  |  |  | 51 nM | 51 nM | 0.0034 s⁻¹ | 66000 M⁻¹ s⁻¹ | 6.3 nM | 0% | 
antibody A15 (L15H15) (antibody, V domains shown, also called aCTLA-4.18) VH: QVQLVESGGGVVQPGRSLRLSCAASGFTFRSYGMHWVRQAPGKGLEWVAVIWYDGSNKHYADSVKGRFTISRDNSKNTLYLQMNSLRAEDTAVYYCARNGLIGAFDIWGQGTMVTVSS VL: not shown |  |  |  |  | 10 nM | 10 nM | 0.00073 s⁻¹ | 70000 M⁻¹ s⁻¹ | 2.6 nM | 0% | 
antibody A16 (L16H16) (antibody, V domains shown, also called aCTLA-4.5) VH: QVQLVESGGGVVQPGRSLRLSCAASGFTFSSYGIHWVRQAPGKGLEWVAVIWYDGSNKYYADSVKGRFTISRDNSKNTLYLQMNSLRAEDTAVYYCARGSLLGPFDYWGQGTLVTVSS VL: DIQMTQSPSSLSASVGDRVTITCRASQGISNYLAWYQQKPGKVPKLLIYAASTLQSGVPSRFSGSGSGTDFTLTISSLQPEDVATYYCQNYNSAPWTFGQGTKVEIK |  |  |  |  | 23 nM | 23 nM | 0.00072 s⁻¹ | 31000 M⁻¹ s⁻¹ | 2.8 nM | 0% | 
antibody A18 (L18H18) (antibody, V domains shown, also called aCTLA-4.11) VH: QVQLVESGGGVVQPGRSLRLSCAASGFTFSSYGMHWVRQAPGKGLEWVAVIWYDGSNKFYADSVKGRFTISSDNSKNTLYLQMNSLRAEDTAVYYCARGGHLGSFDYWGQGTLVTVSS VL: EIVLTQSPGTLSLSPGERATLSCRASQSVSYLAWYQQKPGQAPRLLIYGASSRATGIPDRFSGSGSGTDFTLTISRLEPEDFAVYYCQQYGSSPWTFGQGTKVEIK |  | 14.8 | no binding (tested: 10 µg/mL) |  |  |  |  |  |  |  | 
antibody A12 (L12H12) (antibody, V domains shown, also called aCTLA-4.12; CTLA4.A12) VH: QVQLVESGGGVVQPGRSLRLSCAASGFTFSSYGMHWVRQAPGKGLEWVAVIWYDGSNKYYADSVKGRFTFSRDNSKNTLYLQMNSLRAEDTAVYYCARGGLMGAFDYWGQGTLVTVSS VL: not shown |  | 17.1 | no binding (tested: 10 µg/mL) |  |  |  |  |  |  |  | 
antibody A26 (L26H26) (antibody, V domains shown, also called aCTLA-4.20) VH: QVQLVQSGAEVKKPGASVKVSCKASDYTFTYYGISWVRQAPGQGLEWMGWISAYNGNTNYAQKLQGRVTMTTDTSTNTAYLELRSLRSDDTAVYYCARDYYDSSGYFDYWGQGTLVTVSS VL: not shown |  |  |  |  | 74 nM | 74 nM | 0.00026 s⁻¹ | 3500 M⁻¹ s⁻¹ |  |  | 
